The results in this text go back to publication PMC2673036, “Ancient mtDNA Genetic Variants Modulate mtDNA Transcription and Replication”.

Bounds are passed on as bounds.

Data set [1] has as its target T1, TFAM (mitochondrial transcription factor A) (UniProt Q00059 43-246).
T1 sequence: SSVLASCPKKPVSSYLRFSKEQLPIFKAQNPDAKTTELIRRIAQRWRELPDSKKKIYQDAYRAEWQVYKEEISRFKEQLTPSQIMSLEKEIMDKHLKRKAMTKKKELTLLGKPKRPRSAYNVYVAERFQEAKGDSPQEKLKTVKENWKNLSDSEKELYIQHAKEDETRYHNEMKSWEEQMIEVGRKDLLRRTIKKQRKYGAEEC
The data set is described as follows: EMSA; TFAM:probe 10:1 and 25:1; increased binding vs wt-295, exact value only in figure; 10 mM Tris-HCl pH 7.5, 10 mM KCl, 1 mM DTT, 1 mM EDTA, 6% glycerol; 3 nM probe, 30 or 75 nM TFAM; 30 min, room temperature; 5% native PAGE, 0.5x TBE. The settings on record: protein: recombinant; (PNK end label); blunt.

Data set [2] addresses T1, TFAM (mitochondrial transcription …). The data set is described as follows: EMSA; TFAM:probe 10:1 and 25:1; reference for normalization; 10 mM Tris-HCl pH 7.5, 10 mM KCl, 1 mM DTT, 1 mM EDTA, 6% glycerol; 3 nM probe, 30 or 75 nM TFAM; 30 min, room temperature; 5% native PAGE, 0.5x TBE. To be noted: protein: recombinant; (PNK end label); blunt.

B1: C295T-VAR (haplogroup J, 276-303) (dsDNA)
DNA 1: ACATCATAACAAAAAATTTTCACCAAAC
DNA 2: GTTTGGTGAAAATTTTTTGTTATGATGT
With B1, in data set [1], the binding signal was > 1 relative to wt-295.

B2: wt-295 (CRS 276-303) (dsDNA)
DNA 1: ACATCATAACAAAAAATTTCCACCAAAC
DNA 2: GTTTGGTGGAAATTTTTTGTTATGATGT
On to B2, for which, in data set [2], the binding signal was 1 relative to wt-295.
